Data: IntAct's records for PubMed 24613396

B1: F-box only protein 11 (Homo sapiens), Q86XK2 (parent)
chain: MNSVRAANRRPRRVSRPRPVQQQQQQPPQQPPPQPPQQQPPQQQPPPPPQQQQQQQPPPPPPPPPPLPQERNNVGERDDDVPADMVAEESGPGAQNSPYQLRRKTLLPKRTACPTKNSMEGASTSTTENFGHRAKRARVSGKSQDLSAAPAEQYLQEKLPDEVVLKIFSYLLEQDLCRAACVCKRFSELANDPILWKRLYMEVFEYTRPMMHPEPGKFYQINPEEYEHPNPWKESFQQLYKGAHVKPGFAEHFYSNPARYKGRENMLYYDTIEDALGGVQEAHFDGLIFVHSGIYTDEWIYIESPITMIGAAPGKVADKVIIENTRDSTFVFMEGSEDAYVGYMTIRFNPDDKSAQHHNAHHCLEITVNCSPIIDHCIIRSTCTVGSAVCVSGQGACPTIKHCNISDCENVGLYITDHAQGIYEDNEISNNALAGIWVKNHGNPIIRRNHIHHGRDVGVFTFDHGMGYFESCNIHRNRIAGFEVKAYANPTVVRCEIHHGQTGGIYVHEKGRGQFIENKIYANNFAGVWITSNSDPTIRGNSIFNGNQGGVYIFGDGRGLIEGNDIYGNALAGIQIRTNSCPIVRHNKIHDGQHGGIYVHEKGQGVIEENEVYSNTLAGVWVTTGSTPVLRRNRIHSGKQVGVYFYDNGHGVLEDNDIYNHMYSGVQIRTGSNPKIRRNKIWGGQNGGILVYNSGLGCIEDNEIFDNAMAGVWIKTDSNPTLRRNKIHDGRDGGICIFNGGRGLLEENDIFRNAQAGVLISTNSHPILRKNRIFDGFAAGIEITNHATATLEGNQIFNNRFGGLFLASGVNVTMKDNKIMNNQDAIEKAVSRGQCLYKISSYTSYPMHDFYRCHTCNTTDRNAICVNCIKKCHQGHDVEFIRHDRFFCDCGAGTLSNPCTLAGEPTHDTDTLYDSAPPIESNTLQHN

Variants of: B1
Settings: with prdm1_human PRDM1, O75626
prdm1_human PRDM1, O75626, sequence (O75626 whole entry): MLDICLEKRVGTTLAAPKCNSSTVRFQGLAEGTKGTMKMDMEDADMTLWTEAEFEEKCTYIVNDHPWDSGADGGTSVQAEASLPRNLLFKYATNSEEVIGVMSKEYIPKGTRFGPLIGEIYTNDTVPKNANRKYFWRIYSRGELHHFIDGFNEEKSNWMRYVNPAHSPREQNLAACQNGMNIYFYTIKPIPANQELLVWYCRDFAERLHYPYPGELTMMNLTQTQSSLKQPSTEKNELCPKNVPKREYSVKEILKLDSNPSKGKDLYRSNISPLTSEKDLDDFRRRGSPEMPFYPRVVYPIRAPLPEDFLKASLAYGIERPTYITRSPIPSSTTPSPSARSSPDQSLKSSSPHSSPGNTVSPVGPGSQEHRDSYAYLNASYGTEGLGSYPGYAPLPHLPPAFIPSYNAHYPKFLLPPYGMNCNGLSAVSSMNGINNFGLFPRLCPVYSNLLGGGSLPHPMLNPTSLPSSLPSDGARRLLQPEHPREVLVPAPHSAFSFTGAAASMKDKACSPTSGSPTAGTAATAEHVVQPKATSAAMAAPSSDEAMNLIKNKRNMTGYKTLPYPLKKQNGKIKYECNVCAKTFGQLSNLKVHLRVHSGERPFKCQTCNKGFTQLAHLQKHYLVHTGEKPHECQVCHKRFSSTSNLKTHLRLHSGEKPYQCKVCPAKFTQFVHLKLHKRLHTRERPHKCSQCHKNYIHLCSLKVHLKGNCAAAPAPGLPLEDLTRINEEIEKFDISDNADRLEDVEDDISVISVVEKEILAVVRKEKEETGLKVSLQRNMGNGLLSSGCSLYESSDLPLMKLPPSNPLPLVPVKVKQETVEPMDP

Row | Variant | effect of a mutation on the interaction
1 | Q575L | disrupting interaction strength
